To fix the notation:
B1: PIDD DD (777-883) (domain or fragment, UniProt Q9HB75 777-883, looked up)
chain: LNLGDAETGFLTQSNLLSVAGRLGLDWPAVALHLGVSYREVQRIRHEFRDDLDEQIRHMLFSWAERQAGQPGAVGLLVQALEQSDRQDVAEEVRAVLELGRRKYQDS
notes: PIDD (p53-induced protein with a death domain), death domain, residues 777-883; also called PD-DD; PIDD death domain; source: E. coli BL21 (DE3) RILP, purified (Ni-NTA, size exclusion S-200)

For experiment [1], the target named is T1, full-length RAIDD (1-199), wild type (UniProt P78560 1-199).
T1 construct: RAIDD, full length, residues 1-199 (CARD and DD); also called RD; wild-type full-length RAIDD; source: E. coli BL21 (DE3) RILP, purified (Ni-NTA, size exclusion S-200)
T1 sequence (P78560 whole entry, the tested form may be a part): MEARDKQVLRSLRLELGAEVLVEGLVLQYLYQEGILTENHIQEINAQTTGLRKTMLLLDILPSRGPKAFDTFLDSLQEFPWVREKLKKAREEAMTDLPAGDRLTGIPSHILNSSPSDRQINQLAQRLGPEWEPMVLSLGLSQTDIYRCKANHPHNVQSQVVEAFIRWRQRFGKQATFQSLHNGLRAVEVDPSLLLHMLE
As to the kind of experiment: SEC; RAIDD (full length, DD or mutant) mixed with a molar excess of PIDD DD, 30 min at room temperature; Superdex 200 HR 10/30 in 20 mM Tris-HCl pH 8.0, 150 mM NaCl; fractions on SDS-PAGE, Coomassie. Conditions: both partners purified.

The target in the experiment “PIDD DD (777-883)” is B1. The experiment is described as above. Conditions: both partners purified.

As for B1, the binding result in experiment [1] is listed as “binds”.

B2: RAIDD DD (94-199), wild type (domain or fragment)
chain: not shown
notes: RAIDD (RIP-associated Ich-1/Ced-3 homologous protein with a death domain), death domain, residues 94-199; also called RD-DD; RAIDD death domain; source: E. coli BL21 (DE3) RILP, purified (Ni-NTA, size exclusion S-200)
For B2, the binding result in the experiment with PIDD DD (777-883) is on record as “binds”.
